# Source: article PMC10351726 (2023)
# Biological target: HER2-ECD biotinylated at single site (human, UniProt P04626 23-652, biotinylated at single site)
# Assay: SPR
binder,measurement,value
NanoMab-02 (NM-02) (VHH) VHH: QVQLQESGGGSVQAGETLRLSCTASGFTFDDSDMGWYRQAPGNECELVSSISSDGSTYYADSVKGRFTISQDNAKNTVYLQMNSLKPEDTGVYYCAAEGHRYELGTCAALDYWGRGTQVTVSS,Kd,0.183 nM
humanised NM-02 variant E (VHH) VHH: QVQLQESGGGLVQPGGSLRLSCSASGFTFDDSDMGWYRQAPGNECELVSSISSDGSTYYADSVKGRFTISQDNSKNTLYLQMNSLRAEDTGVYYCAAEGHRYELGTCAALDYWGRGTLVTVSS,Kd,0.434 nM
